Data as given in patent US20250163117A1 (CURE GENETICS, published 2025).

Assays:
Assay in all cases: cell-based or functional assay
[1] = target: T1, human intermediate-affinity IL-2 receptor IL-2Rβγ on cells (human, UniProt P14784 27-551; P31785 23-369)
T1 sequence (looked up) 1: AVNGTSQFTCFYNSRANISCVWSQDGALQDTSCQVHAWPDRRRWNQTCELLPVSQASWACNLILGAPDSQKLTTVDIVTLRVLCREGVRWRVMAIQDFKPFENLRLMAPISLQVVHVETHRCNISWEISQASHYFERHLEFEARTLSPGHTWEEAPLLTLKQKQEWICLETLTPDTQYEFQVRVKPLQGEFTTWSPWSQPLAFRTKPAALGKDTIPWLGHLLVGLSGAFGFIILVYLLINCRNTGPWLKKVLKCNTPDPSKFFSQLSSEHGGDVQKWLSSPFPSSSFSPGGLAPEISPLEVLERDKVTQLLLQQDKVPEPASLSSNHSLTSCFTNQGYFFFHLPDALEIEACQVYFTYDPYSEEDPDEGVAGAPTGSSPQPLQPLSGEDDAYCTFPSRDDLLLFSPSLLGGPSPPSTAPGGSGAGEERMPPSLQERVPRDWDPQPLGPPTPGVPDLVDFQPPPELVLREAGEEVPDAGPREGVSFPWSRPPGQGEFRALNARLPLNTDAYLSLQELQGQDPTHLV
T1 sequence (looked up) 2: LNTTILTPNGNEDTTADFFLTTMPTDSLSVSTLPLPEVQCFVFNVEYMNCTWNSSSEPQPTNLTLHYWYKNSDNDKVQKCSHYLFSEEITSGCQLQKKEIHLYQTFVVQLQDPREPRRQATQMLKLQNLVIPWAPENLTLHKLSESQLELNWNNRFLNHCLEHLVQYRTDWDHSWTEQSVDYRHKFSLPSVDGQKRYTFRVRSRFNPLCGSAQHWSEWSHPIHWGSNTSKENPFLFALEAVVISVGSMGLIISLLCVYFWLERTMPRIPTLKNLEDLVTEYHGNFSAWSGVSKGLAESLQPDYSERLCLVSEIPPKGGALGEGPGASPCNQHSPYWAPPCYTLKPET

[2] = target: T2, human high-affinity IL-2 receptor IL-2Rαβγ on cells (human, UniProt P01589 22-272; P14784 27-551; P31785 23-369)
T2 sequence (looked up) 1: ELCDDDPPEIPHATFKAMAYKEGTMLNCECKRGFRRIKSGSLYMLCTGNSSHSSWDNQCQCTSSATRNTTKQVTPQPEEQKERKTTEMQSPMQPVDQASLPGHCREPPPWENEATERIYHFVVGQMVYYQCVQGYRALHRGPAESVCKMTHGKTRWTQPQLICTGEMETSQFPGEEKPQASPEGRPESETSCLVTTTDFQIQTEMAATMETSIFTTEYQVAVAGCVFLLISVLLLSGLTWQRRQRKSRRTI
T2 sequence (looked up) 2: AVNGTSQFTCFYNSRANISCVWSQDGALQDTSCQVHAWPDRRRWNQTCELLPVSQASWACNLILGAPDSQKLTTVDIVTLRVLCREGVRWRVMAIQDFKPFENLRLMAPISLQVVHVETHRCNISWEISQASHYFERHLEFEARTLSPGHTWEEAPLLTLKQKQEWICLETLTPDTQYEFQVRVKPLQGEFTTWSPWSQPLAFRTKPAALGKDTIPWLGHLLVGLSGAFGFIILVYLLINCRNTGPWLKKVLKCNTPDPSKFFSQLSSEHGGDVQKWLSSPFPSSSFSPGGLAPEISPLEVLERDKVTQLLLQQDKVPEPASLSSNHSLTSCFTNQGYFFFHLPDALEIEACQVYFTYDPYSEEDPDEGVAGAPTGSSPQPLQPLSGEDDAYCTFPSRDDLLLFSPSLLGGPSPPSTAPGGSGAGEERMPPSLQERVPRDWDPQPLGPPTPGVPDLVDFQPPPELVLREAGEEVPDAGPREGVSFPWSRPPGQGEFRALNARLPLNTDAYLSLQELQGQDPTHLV
T2 sequence (looked up) 3: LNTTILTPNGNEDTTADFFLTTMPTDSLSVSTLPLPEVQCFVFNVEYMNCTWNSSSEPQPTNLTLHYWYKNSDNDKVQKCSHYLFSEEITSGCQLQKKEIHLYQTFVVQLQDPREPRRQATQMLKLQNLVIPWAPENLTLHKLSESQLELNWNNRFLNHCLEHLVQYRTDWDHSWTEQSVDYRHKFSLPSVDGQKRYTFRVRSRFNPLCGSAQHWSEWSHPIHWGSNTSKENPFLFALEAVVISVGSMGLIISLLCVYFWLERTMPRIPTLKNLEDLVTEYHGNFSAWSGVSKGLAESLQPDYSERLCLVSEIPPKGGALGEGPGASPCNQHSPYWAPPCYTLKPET

[3] = target: T3, mouse high-affinity IL-2 receptor IL-2Rαβγ on cells (mouse, UniProt P01590 22-268; P16297 27-539; P34902 23-369)
T3 sequence (looked up) 1: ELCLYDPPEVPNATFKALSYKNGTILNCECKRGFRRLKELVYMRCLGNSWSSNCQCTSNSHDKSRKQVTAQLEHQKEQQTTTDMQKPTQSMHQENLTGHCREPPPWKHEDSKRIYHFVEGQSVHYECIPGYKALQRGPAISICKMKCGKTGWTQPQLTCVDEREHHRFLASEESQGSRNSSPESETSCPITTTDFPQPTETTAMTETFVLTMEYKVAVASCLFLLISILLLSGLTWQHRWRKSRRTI
T3 sequence (looked up) 2: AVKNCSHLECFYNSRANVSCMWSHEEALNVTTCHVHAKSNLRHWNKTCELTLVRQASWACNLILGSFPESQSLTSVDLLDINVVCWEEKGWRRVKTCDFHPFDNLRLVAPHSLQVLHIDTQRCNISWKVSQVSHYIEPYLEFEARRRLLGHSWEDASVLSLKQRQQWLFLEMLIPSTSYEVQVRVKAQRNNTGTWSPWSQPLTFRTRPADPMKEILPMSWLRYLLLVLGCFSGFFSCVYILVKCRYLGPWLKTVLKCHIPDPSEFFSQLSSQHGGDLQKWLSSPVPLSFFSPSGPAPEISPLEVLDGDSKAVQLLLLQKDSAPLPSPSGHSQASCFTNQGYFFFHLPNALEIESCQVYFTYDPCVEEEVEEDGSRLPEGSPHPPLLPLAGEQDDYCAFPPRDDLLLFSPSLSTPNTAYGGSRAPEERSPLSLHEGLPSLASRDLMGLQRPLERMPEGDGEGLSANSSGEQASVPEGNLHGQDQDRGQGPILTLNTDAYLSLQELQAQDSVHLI
T3 sequence (looked up) 3: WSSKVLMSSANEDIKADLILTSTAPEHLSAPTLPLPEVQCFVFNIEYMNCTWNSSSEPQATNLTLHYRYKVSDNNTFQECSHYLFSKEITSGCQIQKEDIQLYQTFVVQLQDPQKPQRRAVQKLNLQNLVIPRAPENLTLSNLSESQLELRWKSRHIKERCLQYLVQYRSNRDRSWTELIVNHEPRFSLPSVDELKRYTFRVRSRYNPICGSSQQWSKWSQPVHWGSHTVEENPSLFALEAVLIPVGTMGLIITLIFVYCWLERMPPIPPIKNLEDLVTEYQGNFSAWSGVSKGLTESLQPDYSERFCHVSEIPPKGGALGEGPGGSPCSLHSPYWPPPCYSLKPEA

[4] = target: T4, mouse intermediate-affinity IL-2 receptor IL-2Rβγ on cells (mouse, UniProt P16297 27-539; P34902 23-369)
T4 sequence (looked up) 1: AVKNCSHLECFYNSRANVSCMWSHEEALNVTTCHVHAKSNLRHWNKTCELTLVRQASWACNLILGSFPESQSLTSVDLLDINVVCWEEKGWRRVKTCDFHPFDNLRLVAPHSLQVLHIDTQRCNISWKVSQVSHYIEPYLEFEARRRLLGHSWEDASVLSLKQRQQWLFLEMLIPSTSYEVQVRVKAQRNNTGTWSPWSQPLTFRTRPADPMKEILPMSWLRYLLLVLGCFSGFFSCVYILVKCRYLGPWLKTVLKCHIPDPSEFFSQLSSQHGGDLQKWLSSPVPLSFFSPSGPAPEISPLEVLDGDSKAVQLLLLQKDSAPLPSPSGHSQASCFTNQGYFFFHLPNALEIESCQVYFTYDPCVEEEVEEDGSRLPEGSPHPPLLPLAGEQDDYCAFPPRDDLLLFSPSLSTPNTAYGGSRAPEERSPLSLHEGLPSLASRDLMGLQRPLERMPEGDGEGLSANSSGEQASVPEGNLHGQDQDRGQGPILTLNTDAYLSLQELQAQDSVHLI
T4 sequence (looked up) 2: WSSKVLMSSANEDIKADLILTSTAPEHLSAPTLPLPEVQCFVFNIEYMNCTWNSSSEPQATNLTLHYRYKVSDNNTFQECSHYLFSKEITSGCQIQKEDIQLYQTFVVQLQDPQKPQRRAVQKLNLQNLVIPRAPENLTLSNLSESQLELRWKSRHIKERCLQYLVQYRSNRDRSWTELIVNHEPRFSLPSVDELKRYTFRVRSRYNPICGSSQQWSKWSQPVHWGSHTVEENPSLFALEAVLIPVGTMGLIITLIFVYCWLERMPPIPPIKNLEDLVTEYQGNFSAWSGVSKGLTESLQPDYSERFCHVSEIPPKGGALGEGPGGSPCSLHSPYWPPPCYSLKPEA

[5] = target: T1, human intermediate-affinity IL-2 …; remark: listed apart in the source

B1: CP-trIL-2 012 (ligand)
chain: PTSSSTKKTQLQLEHLLLDLQMILNGINNYKNPLRPRDLISNINVIVLELKGSETTELKHLQSLEEELKDLEEVLNLAQSKNFHTIVEFLNRWITFSQSIISTLT
notes: H1-H3-H2-H4; loops 1 and 2 removed; de-Ala1, C58S, C125S, P65D
- EC50 of STAT5 activation, human CD8 T cells (flow cytometry) [1]: 18.6 nM
- EC50 of STAT5 activation, human NK cells (flow cytometry) [1]: 5.11 nM
- EC50 of STAT5 activation, human Tregs (flow cytometry) [2]: 7.91 nM
- EC50 of STAT5 activation, mouse Tregs (flow cytometry) [3]: 52 nM
- EC50 of STAT5 activation, mouse CD8 T cells (flow cytometry) [4]: 91.8 nM
- EC50 of STAT5 activation, mouse NK cells (flow cytometry) [4]: 84 nM
- EC50 (read off the curve): STAT5 phosphorylation in HH cells [5]: ~6 nM
